Test results from US11866760B2, “Microorganisms for the production of insect pheromones and related compounds” (Provivi, Inc., priority 2017, dated 2024).
Where a chain is given by its changes, count along the chain named. Names and notes keep the numbering of the source.

What was measured:
methyl palmitate = experiment: HaFAR mutant library cultivation in 24 well plates in Y. lipolytica SPV603; assay type: cell-based, Yarrowia lipolytica; conditions: second FAR copy in SPV603, 24 well plates
Method: Four individual clones of positive integrants were tested. Cultivation was performed in 24 well plates. Briefly, 2 mL YPD was inoculated from patches of individual clones and incubated for 24 h at 28° C., 1000 rpm. After 24 h OD600 was measured and the cells were centrifuged at 1000 rpm (Table 23). The cell pellets were resuspended in 1 mL S2 media and 10 g/L methyl palmitate was added. The cells were incubated for 18 h at 28° C., 1000 rpm. Cultivations were stored at −20° C. until analyzed. Extraction and analysis was performed according to previously established standard protocols using GC-FID.
In a first round four individual isolate from each transformation was tested. Cultivation was performed in 24 well plates. 2 mL YPD was inoculated from patches of individual clones and incubated for 24 h at 28° C., 1000 rpm. After 24 h OD600 was measured and the cells were centrifuged at 1000 rpm. The cell pellets were resuspended in 1 mL S2 media and 10 g/L methyl palmitate was added. The cells were incubated for 24 h at 28° C., 1000 rpm. Cultivations were stored at −20° C. until analyzed. Next, four clones of the best performing positive integrant were tested. Cultivation was performed in 24 well plates. 2 mL YPD was inoculated from patches of individual clones and incubated for ˜28 h at 28° C., 1000 rpm. After 28 h OD600 was measured and the cells were centrifuged at 1000 rpm. The cell pellets were resuspended in 1 mL S2 media and 10 g/L methyl palmitate was added. The cells were incubated for 18 h at 28° C., 1000 rpm. Cultivations were stored at −20° C. until analyzed.
Cell pellets were resuspended with 500 μL 5% NaOH (in methanol) then heated for 1 hour at 85° C. Samples were cooled down and then acidified by adding 400 μL 5N HCl. Next, 500 μL chloroform (containing 1 mM C17:0 heptadecanoate internal standard) were added to samples. Samples were mixed vigorously then spun down for 2 minutes at 13,000 RPM using a table top centrifuge. 450 μL chloroform were transferred to a new vial then evaporated at 85° C. for ˜15 minutes. Samples were then resuspended in 50 μL BSTFA (and were now ready for GC analysis). After analysis of the fatty alcohols samples were diluted ˜1:10 and rerun on the GC to improve peak separation of the fatty acid peaks.
All quantifications were based on the concentration of the internal standard. The concentration of the internal standard C17ME is 1 mM. The final concentration of fatty alcohols as well as fatty acids were calculated based on the effective carbon number compared to the internal standard.

palmitic acid = experiment: in vivo bioconversion assay of desaturases in C. tropicalis SPV053; assay type: cell-based, Candida tropicalis
Method: Functional expression of the heterologous desaturases was characterized by a series of in vivo bioconversion experiments. C. tropicalis SPV053 derived stains expressing insect desaturases were cultured in rich (YPD) or defined (CM glucose) media supplemented with ethanol (for induction) and saturated acid substrates (palmitic acid, methyl palmitate, methyl myristate). Small scale (2 ml) cultures were cultivated for a total of 72 hours in 24 deep well plates with substrate added after the initial 24 hours.
Positive isolates were re-patched onto YPD+300 μg/ml Zeocin and grown overnight and then stored at 4° C. Strains were inoculated from patch plates into 2 ml of YPD in 24 deep well plates (square well, pyramid bottom). Three positive clones were inoculated for each desaturase variant and the mCherry expressing control strain. Deep well plates were incubated at 30° C., 1000 rpm, and 80% humidity in the Infors HT Multitron Pro plate shaker for 24 hrs. After 24 hrs of incubation, cultures were split into equal 1 ml volumes to make two sets of identical plates. Both sets of plates were pelleted by centrifugation at 500×g. One set of plates was resuspended in 2 ml of YPD+0.3% (v/v) ethanol and the second set was resuspended in 2 ml of CM glucose+0.3% ethanol. Ethanol was added at this stage to induce recombinant enzyme expression from the ICL promoter. Cultures were incubated for another 24 hours under the same conditions before 300 mg/L palmitic acid was added to cultures from a 90 g/L stock solution in ethanol. The result was the addition of a fresh 0.3% ethanol in conjunction with the palmitic acid. A subset of strains was also cultured without palmitic acid addition. These cultures had 0.3% ethanol added instead. All cultures were incubated for an additional 24 hrs before a final addition of 0.3% ethanol. After another 24 hr period of incubation, 1.5 ml of each culture was harvested in 1.7 ml microcentrifuge tubes and pelleted. Supernatant was saved in fresh tubes and pellets were processed as described below. A subset of supernatant samples was also extracted to look for free acid in the extracellular medium.
The mCherry control and confirmed positive variants were rescreened using both palmitic acid and methyl palmitate as substrates. The culturing was conducted as described above with equimolar (1.17 mM) amounts of substrate added from ethanol stock solutions (methyl palmitate 94 g/L stock, 313 mg/L final concentration). The same protocol was also repeated with the full panel of strains using an 84 g/L stock of methyl myristate (C14:0). The final concentration of substrate was again 1.17 mM.
The in vivo bioconversion assay was scaled up for confirmation of (Z)-11-hexadecenoic acid synthesis. 2 ml YPD seed cultures of strains SPV0302, SPV0303, and SPV0304 (mCherry), […], SPV0305, and SPV0306 (A. transitella Z11 desaturase), and SPV0307, SPV0308, and SPV0309 (H. zea Z11 desaturase) were grown overnight at 30° C., 1000 rpm, 80% humidity in the Infors HT Multitron plate shaker. 200 μl of overnight culture from each of the three clonal isolates was pooled and inoculated into a single 125 ml baffled flask containing 20 ml YPD. The resulting three flasks were grown for 24 hrs at 30° C. and 250 rpm (Infors Flask shaker). Cultures were pelleted by centrifugation at 500×g and resuspended in 20 ml of YPD+0.3% (v/v) ethanol and returned to 125 ml baffled shake flasks. Cultures were incubated for an additional 24 hours before addition of 300 mg/L palmitic acid in a 90 g/L stock in ethanol (221 μl per flask). After 24 hours of incubation another 0.3% (v/v) ethanol (221 μl) was added to each flask for sustained induction. Flasks were incubated for an additional 24 hours before cells were harvested for FAME analysis and DMDS derivatization.
Total lipid composition as well as the (Z)-11-hexadecenoic acid quantification was based on modified procedures by Moss et al. (1982) and Yousuf et al (2010). […]

S. cerevisiae ΔOLE1 = experiment: ΔOLE1 growth complementation assay without UFA; assay type: cell-based, Saccharomyces cerevisiae
Description: S. cerevisiae ΔOLE1 (MATA OLE1::LEU2 ura3-52 his4) was used as an expression host. A synthetic expression cassette termed pOLE1 (FIG. 10, SEQ ID NO: 4) which comprises the OLE1 promoter region (SEQ ID NOs: 5 and 6), nucleotides encoding for 27 N-terminal amino acids of the OLE1 leader sequence (SEQ ID NO: 7), and a VPS13 terminator sequence (SEQ ID NO: 8) was created, and cloned into pESC-URA vector in between SacI and EcoRI sites. To test the functionality of the pOLE1 cassette, Dasher GFP synthon was inserted in between SpeI and NotI sites to create pOLE1-GFP plasmid. Competent ΔOLE1 was transformed with pOLE1-GFP, and plated on CM-Ura glucose agar plate (Teknova) containing UFA (20 mm CM-URA glucose agar plate was coated with 100 μL CM-Ura glucose medium containing 1% tergitol, and 3 μL palmitoleic acid). […] Validation of ΔOLE1 complementation was performed by restoring OLE1 activity. Specifically, native S. cerevisiae OLE1 synthon was inserted into pOLE1 cassette devoid of the leader sequence to create pOLE1-OLE1 plasmid. After transformation of ΔOLE1, and selection on CM-Ura glucose agar containing UFA, single colonies were patched onto YPD and CM-Ura glucose without UFA. After incubation at 30° C. for 5 days, growth was observed (FIG. 11A-FIG. 11E). As expected, Dasher GFP expression could not complement ΔOLE1 growth without UFA (FIG. 11A-FIG. 11E). DNA sequences which encode for desaturase variants were synthesized (to include nucleotide changes which remove restriction sites used for cloning purposes), and cloned into pOLE1 using SpeI-NotI sites (Genscript, SEQ ID NOs: 9-13). Complementation assay of ΔOLE1 with insect desaturases were performed in the same way as with OLE1 desaturase.

[1] = SPV053, supplementation not stated

B1: HaFAR (S60A) (protein)
chain: MVVLTSKETKPSVAEFYAGKSVFITGGTGFLGKVFIEKLLYSCPDIENIYMLIREKKGLAVSERIKQFLDDPLFTRLKDKRPADLEKIVLIPGDITAPDLGINSENEKMLIEKVSVIIHSAATVKFNEPLPTAWKINVEGTRMMLALSRRMKRIEVFIHISTAYTNTNREVVDEILYPAPADIDQVHQYVKDGISEEDTEKILNGRPNTYTFTKALTEHLVAENQAYVPTIIVRPSVVAAIKDEPLKGWLGNWFGATGLTVFTAKGLNRVIYGHSSYIVDLIPVDYVANLVIAAGAKSSKSTELKVYNCCSSSCNPVTIGTLMSMFADDAIKQKSYAMPLPGWYIFTKYKWLVLLLTFLFQVIPAYVTDLSRHLIGKSPRYIKLQSLVNQTRSSIDFFTNHSWVMKADRVRELYASLSPADKYLFPCDPTDINWTHYIQDYCWGVRHFLEKKSYE
- Z11-16OH titers compared to the HaFAR double copy strain (methyl palmitate): neutral or showed slight increases

B2: HaFAR (S298A) (protein)
chain: B1 chain with A60S, S298A
- Z11-16OH titers compared to the HaFAR double copy strain (methyl palmitate): neutral or showed slight increases

B3: HaFAR (S453A) (protein)
chain: B1 chain with A60S, S453A
- Z11-16OH titers compared to the HaFAR double copy strain (methyl palmitate): neutral or showed slight increases

B4: A. transitella desaturase: Amyelois transitella Z11 desaturase (JX964774) (protein, listed as Amyelois transitella)
chain: MVPNKGSSDVLSEHSEPQFTKLIAPQAGPRKYKIVYRNLLTFGYWHLSAVYGLYLCFTCAKWATILFAFFLYVIAEIGITGGAHRLWAHRTYKAKLPLEILLLIMNSIAFQDTAFTWARDHRLHHKYSDTDADPHNATRGFFYSHVGWLLVKKHPEVKARGKYLSLDDLKNNPLLKFQKKYAILVIGTLCFLMPTFVPVYFWGEGISTAWNINLLRYVMNLNMTFLVNSAAHIFGNKPYDKSIASVQNISVSLATFGEGFHNYHHTYPWDYRAAELGNNRLNMTTAFIDFFAWIGWAYDLKSVPQEAIAKRCAKTGDGTDMWGRKR
- (Z)-11-hexadecenoic acid titer (palmitic acid; SPV053): approximately 5.62 mg/L
- activity on myristoyl-CoA (palmitic acid; SPV053, methyl myristate substrate): some activity on myristoyl-CoA
- (Z)-9-hexadecenoic acid in C16-fatty acid composition (palmitic acid; [1]): 14.5%
- (Z)-11-hexadecenoic acid in C16-fatty acid composition (palmitic acid; [1]): 30.0%
- hexadecanoic acid in C16-fatty acid composition (palmitic acid; [1]): 55.5%
- rescue of ΔOLE1 growth without UFA (S. cerevisiae ΔOLE1; minimal medium (CM-Ura glucose) agar plate): conferred growth without UFA
- rescue of ΔOLE1 growth without UFA (S. cerevisiae ΔOLE1; rich medium (YPD) agar plate): conferred growth without UFA
